This is an account of results in the supplement of paper PMC5998384.

The subject of series [1] is HeLa Kyoto. Kind of series: thermal stability score vs G1/S (z-score of summed log2 fold changes over temperatures); higher = more thermally stable than in G1/S.
The test system of series [2] is HeLa Kyoto. The series can be described thus: solubility in G1/S (NP-40 vs SDS abundance) (log2 ratio); higher = more soluble. The note with it: cell cycle stage: G1/S.
Series [3] has as its system HeLa Kyoto. Kind of series: melting temperature (median over replicates), in situ; higher = more thermally stable.
Series [4] concerns HeLa Kyoto. The series can be described thus: solubility change mitosis vs G1/S (difference of NP-40 vs SDS log2 ratios) (log2 ratio difference); higher = more soluble in mitosis.
[5] abbreviates: cell cycle stage: early G1 (4.5 h after nocodazole release).
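Wherever melting temperature (median over replicates), in situ is given: HeLa Kyoto cells synchronized by double thymidine or nocodazole block, proteins quantified by TMT10plex mass spectrometry, three independent biological replicates.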
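Wherever solubility change mitosis vs G1/S (difference of NP-40 vs SDS log2 ratios) is given: synchronized HeLa Kyoto cells (double thymidine block for G1/S, nocodazole release for mitosis), protein amounts in NP-40 versus SDS lysates quantified by mass spectrometry, three biological replicates.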
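Wherever solubility in G1/S (NP-40 vs SDS abundance) is given: HeLa Kyoto cells arrested at G1/S by double thymidine block, proteins quantified by TMT10plex mass spectrometry in mild NP-40 versus SDS extracts, three biological replicates.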
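Wherever thermal stability score vs G1/S (z-score of summed log2 fold changes over temperatures) is given: synchronized HeLa Kyoto cells, proteins quantified by TMT10plex mass spectrometry, three biological replicates, mitosis taken 0.5 h after nocodazole release, G1/S directly after double thymidine block.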

For the sequence “MSVLLRSGLGPLCAVARAAIPFIWRGKYFSSGNEPAENPVTPMLRHLMYKIKSTGPITVAEYMKEVLTNPAKGYYVYRDMLGEKGDFITSPEISQIFGELLGIWFISEWMATGKSTAFQLVELGPGRGTLVGDILRVFTQLGSVLKNCDISVHLVEVSQKLSEIQALTLTKEKVPLERNAGSPVYMKGVTKSGIPISWYRDLHDVPKGYSFYLAHEFFDVLPVHKFQKTPQGWREVFVDIDPQVSDKLRFVLAPSATPAEAFIQHDETRDHVEVCPDAGVIIEELSQRIALTGGAALVADYGHDGTKTDTFRGFCDHKLHDVLIAPGTADLTADVDFSYLRRMAQGKVASLGPIKQHTFLKNMGIDVRLKVLLDKSNEPSVRQQLLQGYDMLMNPKKMGERFNFFALLPHQRLQGGRYQRNARQSKPFASVVAGFSELAWQ [NDUFAF7]”, the thermal stability score in the series on HeLa Kyoto [1] (setting [5]) stood at 0.103; with HeLa Kyoto [1] (cell cycle stage: mitosis), 1.08. Further, in the series on HeLa Kyoto [2], the “solubility in G1/S (log2)” value turned out to be 0.278. The values for the melting temperature in the series with HeLa Kyoto [3] (cell cycle stage: G1/S) and in the series with HeLa Kyoto [3] (cell cycle stage: mitosis) were 49.2 °C and 49 °C, respectively. Moreover, in the series with HeLa Kyoto [4], the “solubility change mitosis (log2)” value was -0.162.
For the sequence “MSVNSEKSSSSERPEPQQKAPLVPPPPPPPPPPPPPLPDPTPPEPEEEILGSDDEEQEDPADYCKGGYHPVKIGDLFNGRYHVIRKLGWGHFSTVWLCWDMQGKRFVAMKVVKSAQHYTETALDEIKLLKCVRESDPSDPNKDMVVQLIDDFKISGMNGIHVCMVFEVLGHHLLKWIIKSNYQGLPVRCVKSIIRQVLQGLDYLHSKCKIIHTDIKPENILMCVDDAYVRRMAAEATEWQKAGAPPPSGSAVSTAPQQKPIGKISKNKKKKLKKKQKRQAELLEKRLQEIEELEREAERKIIEENITSAAPSNDQDGEYCPEVKLKTTGLEEAAEAETAKDNGEAEDQEEKEDAEKENIEKDEDDVDQELANIDPTWIESPKTNGHIENGPFSLEQQLDDEDDDEEDCPNPEEYNLDEPNAESDYTYSSSYEQFNGELPNGRHKIPESQFPEFSTSLFSGSLEPVACGSVLSEGSPLTEQEESSPSHDRSRTVSASSTGDLPKAKTRAADLLVNPLDPRNADKIRVKIADLGNACWVHKHFTEDIQTRQYRSIEVLIGAGYSTPADIWSTACMAFELATGDYLFEPHSGEDYSRDEDHIAHIIELLGSIPRHFALSGKYSREFFNRRGELRHITKLKPWSLFDVLVEKYGWPHEDAAQFTDFLIPMLEMVPEKRASAGECLRHPWLNS [SRPK2]”, the figures for the thermal stability score in the series on HeLa Kyoto [1] (setting [5]) and in the series on HeLa Kyoto [1] (cell cycle stage: mitosis) were -3.22 and -4.46, respectively. Besides, the “solubility in G1/S (log2)” value in the series with HeLa Kyoto [2] was -0.405. Also, the melting temperature came to 53.3 °C with HeLa Kyoto [3] (cell cycle stage: G1/S) and 52.2 °C in the series on HeLa Kyoto [3] (cell cycle stage: mitosis). The “solubility change mitosis (log2)” value in the series with HeLa Kyoto [4] stood at 0.0499.
Consider “MSVPSALMKQPPIQSTAGAVPVRNEKGEISMEKVKVKRYVSGKRPDYAPMESSDEEDEEFQFIKKAKEQEAEPEEQEEDSSSDPRLRRLQNRISEDVEERLARHRKIVEPEVVGESDSEVEGDAWRMEREDSSEEEEEEIDDEEIERRRGMMRQRAQERKNEEMEVMEVEDEGRSGEESESESEYEEYTDSEDEMEPRLKPVFIRKKDRVTVQEREAEALKQKELEQEAKRMAEERRKYTLKIVEEETKKELEENKRSLAALDALNTDDENDEEEYEAWKVRELKRIKRDREDREALEKEKAEIERMRNLTEEERRAELRANGKVITNKAVKGKYKFLQKYYHRGAFFMDEDEEVYKRDFSAPTLEDHFNKTILPKVMQVKNFGRSGRTKYTHLVDQDTTSFDSAWGQESAQNTKFFKQKAAGVRDVFERPSAKKRKTT [MFAP1]”, for which the figures for the thermal stability score in the series with HeLa Kyoto [1] (setting [5]) and in the series on HeLa Kyoto [1] (cell cycle stage: mitosis) were -4 and -4.38, respectively. Besides, the “solubility in G1/S (log2)” value with HeLa Kyoto [2] is -0.901. Also, the melting temperature in the series on HeLa Kyoto [3] (cell cycle stage: G1/S) is 57.2 °C; in the series with HeLa Kyoto [3] (cell cycle stage: mitosis), 54.3 °C. The “solubility change mitosis (log2)” value in the series with HeLa Kyoto [4] was 0.782.
Regarding “MSVQVVSAAAAAKVPEVELKDLSPSEAESQLGLSTAAVGAMAPPAGGGDPEAPAPAAERPPVPGPGSGPAAALSPAAGKVPQASAMKRSDPHHQHQRHRDGGEALVSPDGTVTEAPRTVKKQIQFADQKQEFNKRPTKIGRRSLSRSISQSSTDSYSSAASYTDSSDDETSPRDKQQKNSKGSSDFCVKNIKQAEFGRREIEIAEQEMPALMALRKRAQGEKPLAGAKIVGCTHITAQTAVLMETLGALGAQCRWAACNIYSTLNEVAAALAESGFPVFAWKGESEDDFWWCIDRCVNVEGWQPNMILDDGGDLTHWIYKKYPNMFKKIKGIVEESVTGVHRLYQLSKAGKLCVPAMNVNDSVTKQKFDNLYCCRESILDGLKRTTDMMFGGKQVVVCGYGEVGKGCCAALKAMGSIVYVTEIDPICALQACMDGFRLVKLNEVIRQVDIVITCTGNKNVVTREHLDRMKNSCIVCNMGHSNTEIDVASLRTPELTWERVRSQVDHVIWPDGKRIVLLAEGRLLNLSCSTVPTFVLSITATTQALALIELYNAPEGRYKQDVYLLPKKMDEYVASLHLPTFDAHLTELTDEQAKYLGLNKNGPFKPNYYRY [AHCYL2]”, the thermal stability score in the series with HeLa Kyoto [1] (setting [5]) was -1.59; in the series on HeLa Kyoto [1] (cell cycle stage: mitosis), -3.95. For the same sequence, in the series with HeLa Kyoto [2], the “solubility in G1/S (log2)” value was -0.105. For the same sequence, the melting temperature in the series with HeLa Kyoto [3] (cell cycle stage: G1/S) was 60.1 °C; with HeLa Kyoto [3] (cell cycle stage: mitosis), 57.5 °C. Moreover, the “solubility change mitosis (log2)” value in the series on HeLa Kyoto [4] was -0.0168.
